According to publication PMC6539025, “P-element Somatic Inhibitor Protein Binding a Target Sequence in dsx Pre-mRNA Conserved in Bombyx mori and Spodoptera litura”:

Key:
MBP-BmPSI = MBP-BmPSI (Bombyx mori, UniProt A8R081 1-703); test: ITC; 25 C; n = 1.02; RNA dissolved in protein purification buffer, 20 mM Tris, 20 mM NaCl (pH not given); ITC at 25 C; EMSA buffer not given; conditions: protein: recombinant; tags: N-terminal His6-MBP-TEV
SlPSI L127G = SlPSI L127G (Spodoptera litura, UniProt A0A9J7DW37 1-732, L127G); test: competition; unlabeled CE1 against biotin-CE1; RNA dissolved in protein purification buffer, 20 mM Tris, 20 mM NaCl (pH not given); ITC at 25 C; EMSA buffer not given; conditions: protein: recombinant; tags: N-terminal His6-MBP-TEV
Sequence of SlPSI L127G (A0A9J7DW37 entry or part of it L127G | L127G L127G): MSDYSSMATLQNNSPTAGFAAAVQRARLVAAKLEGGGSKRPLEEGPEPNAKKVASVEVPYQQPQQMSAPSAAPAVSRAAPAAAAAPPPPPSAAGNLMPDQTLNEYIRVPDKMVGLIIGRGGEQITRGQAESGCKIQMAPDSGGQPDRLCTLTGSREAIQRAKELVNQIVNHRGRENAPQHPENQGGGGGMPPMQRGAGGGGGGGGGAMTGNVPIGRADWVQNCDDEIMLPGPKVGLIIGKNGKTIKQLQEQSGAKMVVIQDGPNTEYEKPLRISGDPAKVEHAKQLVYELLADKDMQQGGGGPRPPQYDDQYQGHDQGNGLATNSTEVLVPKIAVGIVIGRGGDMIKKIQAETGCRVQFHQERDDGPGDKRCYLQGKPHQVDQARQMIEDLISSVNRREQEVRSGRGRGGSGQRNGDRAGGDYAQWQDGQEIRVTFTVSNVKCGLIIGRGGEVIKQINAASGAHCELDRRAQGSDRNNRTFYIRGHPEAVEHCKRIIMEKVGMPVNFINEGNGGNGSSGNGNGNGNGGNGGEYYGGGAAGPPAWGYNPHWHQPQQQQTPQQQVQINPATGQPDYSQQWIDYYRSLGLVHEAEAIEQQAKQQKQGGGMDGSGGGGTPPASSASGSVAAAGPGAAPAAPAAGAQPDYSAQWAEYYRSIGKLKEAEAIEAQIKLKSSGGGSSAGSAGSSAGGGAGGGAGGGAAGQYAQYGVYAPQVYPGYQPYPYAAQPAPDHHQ

Sequence of MBP-BmPSI (A8R081 entry or part of it): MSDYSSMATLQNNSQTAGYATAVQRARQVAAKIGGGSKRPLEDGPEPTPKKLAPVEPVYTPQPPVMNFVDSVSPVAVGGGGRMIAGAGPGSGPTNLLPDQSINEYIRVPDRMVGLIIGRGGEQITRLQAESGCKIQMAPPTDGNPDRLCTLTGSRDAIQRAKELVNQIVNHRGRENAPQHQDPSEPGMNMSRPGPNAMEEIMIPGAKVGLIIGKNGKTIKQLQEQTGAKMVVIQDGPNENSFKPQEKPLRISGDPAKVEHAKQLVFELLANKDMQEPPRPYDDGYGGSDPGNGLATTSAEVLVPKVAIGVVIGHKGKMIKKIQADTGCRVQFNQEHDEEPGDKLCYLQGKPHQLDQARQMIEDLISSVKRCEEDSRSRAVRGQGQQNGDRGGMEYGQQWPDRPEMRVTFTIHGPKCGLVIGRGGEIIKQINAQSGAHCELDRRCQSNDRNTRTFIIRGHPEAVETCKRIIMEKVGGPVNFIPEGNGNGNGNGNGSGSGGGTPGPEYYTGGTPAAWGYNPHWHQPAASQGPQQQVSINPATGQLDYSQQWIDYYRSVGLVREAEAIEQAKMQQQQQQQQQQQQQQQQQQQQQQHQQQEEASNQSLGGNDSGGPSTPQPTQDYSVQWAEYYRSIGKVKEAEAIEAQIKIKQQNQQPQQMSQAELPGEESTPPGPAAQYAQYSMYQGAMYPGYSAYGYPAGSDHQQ

**Q.** With UUAAUAAUAUAAGUGGUGUA (ssRNA) [CE1 RNA, unlabeled] as the binder, how does the Ka (MBP-BmPSI) read?
**A.** Its Ka is 1.74e+07 M⁻¹.

**Q.** Does UUAAUAAUAUAAGUGGUGUA (ssRNA) [CE1 RNA, unlabeled] bind (SlPSI L127G)?
**A.** Result: binds
